In patent US20240343803A1 (SHANDONG SIMCERE BIOPHARMACEUTICAL, published 2024):
Positions count from the first letter of the chain named.

T1: human PVRIG on FlpinCHO-PVRIG cells (human, UniProt Q6DKI7 41-326)
T1 construct: whole, on cells
T1 sequence (looked up): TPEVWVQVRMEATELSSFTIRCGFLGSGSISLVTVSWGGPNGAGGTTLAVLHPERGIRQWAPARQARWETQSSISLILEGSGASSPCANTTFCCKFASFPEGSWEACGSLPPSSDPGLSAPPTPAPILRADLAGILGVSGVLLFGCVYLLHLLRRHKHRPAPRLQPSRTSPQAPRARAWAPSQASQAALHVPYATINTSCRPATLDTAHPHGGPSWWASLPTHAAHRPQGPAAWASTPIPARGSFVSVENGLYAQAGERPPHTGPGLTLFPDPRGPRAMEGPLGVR

T2: cynomolgus monkey PVRIG on FlpinCHO-cyno PVRIG cells (cynomolgus monkey, UniProt A0A2K5WVV8 41-322)
T2 construct: whole, on cells
T2 sequence: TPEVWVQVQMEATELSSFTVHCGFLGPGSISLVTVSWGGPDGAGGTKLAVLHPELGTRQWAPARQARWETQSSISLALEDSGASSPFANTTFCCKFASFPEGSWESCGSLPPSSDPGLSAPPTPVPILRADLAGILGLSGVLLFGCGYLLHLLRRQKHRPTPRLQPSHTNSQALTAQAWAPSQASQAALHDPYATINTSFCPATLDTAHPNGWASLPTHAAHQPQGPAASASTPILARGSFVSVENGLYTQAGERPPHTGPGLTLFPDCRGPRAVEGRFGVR

T3: TIGIT on human PBMCs stimulated by SEA (human, UniProt Q495A1 22-244)
T3 construct: whole, on cells
T3 sequence (looked up): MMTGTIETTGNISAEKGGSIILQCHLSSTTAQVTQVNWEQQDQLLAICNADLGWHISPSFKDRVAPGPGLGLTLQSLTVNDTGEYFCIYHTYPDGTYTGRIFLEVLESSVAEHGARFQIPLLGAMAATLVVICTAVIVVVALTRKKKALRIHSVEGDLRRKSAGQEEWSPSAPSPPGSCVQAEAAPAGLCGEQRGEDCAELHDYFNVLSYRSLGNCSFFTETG

B1: PVRIG-A118-H3 (Fc fusion)
chain: EVQLVESGGGLVQPGGSLRLSCAASETYFDLYVMGWYRQAPGKDRELVATITYTGSIKYVDSVKGRFTISRGDAKNSLYLQMNSLRAEDTAVYYCNADPSGLGRKVYWGQGTMVTVSS
notes: humanized variant of PVRIG-A118; also called A118.VH3; not shown: constant part not restated for the humanized forms; parents are VHH-hinge-CH2-CH3 of human IgG1; detected by anti-human
B2: PVRIG-A118-H2 (Fc fusion)
chain: B1 chain with G72D, D73N
notes: humanized variant of PVRIG-A118; also called A118.VH2; not shown: constant part not restated for the humanized forms; parents are VHH-hinge-CH2-CH3 of human IgG1; detected by anti-human
B3: PVRIG-A118-H1 (Fc fusion)
chain: B1 chain with K58Y, G72D, D73N
notes: humanized variant of PVRIG-A118; also called A118.VH1; not shown: constant part not restated for the humanized forms; parents are VHH-hinge-CH2-CH3 of human IgG1; detected by anti-human
B4: TIGIT-002-H4L3 (antibody, V domains shown)
VH: EVQLQESGPGLVKPSETLSLTCAVSGYSITSDSWNWIRQPPGKKLEYIGYISYSGNTYYNPSLKSRVTISRDTSKNQFSLKLSSVTAADTAVYYCARLDFSNYGGAVDYWGQGTTVTVSS
VL: DIVMTQSPDSLAVSLGERATINCKASQNVRTAVAWYQQKPGQSPKLMIYSASYRYTGVPDRFSGSGSGTDFTLTISSLQAEDVAVYYCQQYYTTPWTFGGGTKVEIK
notes: Humanized anti-TIGIT antibody
B5: TIGIT-005-H2L1d (antibody, V domains shown)
VH: EVQLVQSGAEVKKPGASVKVSCKASGYAFTNYLIEWVRQAPGQRLEWMGVINPGSGGTNYKEKFKGRVTITADKSSSTAYMELSSLRSEDTAVYYCARGEYFFFDYWGQGTTVTVSS
VL: B4 VL with N28H, R30S, T31N, Q38H, M47L, Y91H, T93N, W96H
notes: Humanized anti-TIGIT antibody with NG-site mutation in VL
B6: TIGIT-006-H5L3 (antibody, V domains shown)
VH: B4 VH with I29M, S33Y, N56R, L98G, F100Y, V107M, D108Y, Y109D
VL: DIVMTQSPDSLAVSLGERATINCRASQGVSTTIAWYQQKPGQSPKLLIYSASYRYTGVPRFSGSGSGTDFTLTISSLQAEDVAVYYCQQYYSSPFTFGGGTKVEIK
notes: Humanized anti-TIGIT antibody
B7: TIGIT-070-H1L1 (antibody, V domains shown)
VH: EVQLVQSGAEVKKPGASVKVSCKASGYTFTNYYMHWVRQAPGQRLEWMGRIDPDSGGSKYNEKFKSRVTITVDKSASTAYMELSSLRSEDTAVYYCAREGHYGFYSDYWGQGTTVTVSS
VL: DIQMTQSPSSLSASVGDRVTITCRVSENIYSYLAWYQQKPGKSPKLLIYNAKTLAEGVPSRFSGSGSGTDFTLTISSLQPEDFATYYCQHHYGNPLTFGPGTKVDIK
notes: Humanized anti-TIGIT antibody

target: T1, human PVRIG on FlpinCHO-PVRIG cells; experiment: FACS, FlpinCHO-PVRIG cells
Description: (§1) The Ham's F12 (Gibico, 21127-022) complete medium containing 10% FBS was then added to terminate the digestion and acquire cell suspension. After counting with a cell counter (Beckman Coulter, Vi-CELL), an appropriate amount of cell suspension was centrifuged at 350×g to remove the supernatant, washed twice with PBS, stained with Zombie violet (Biolegend, 423114) and incubated at room temperature for 20 minutes. After incubation, the cells were added with staining buffer (2% FBS+PBS) to stop staining, centrifuged at 350×g to remove the supernatant, washed twice and resuspended with staining buffer to a density of 2×10⁶ cells/mL. The cells were plated into a 96-well plate (50 μL of cell suspension per well) for further use. The antibodies were diluted from the highest concentration of 46 nM (two-fold concentration) with staining buffer by 3.3-fold serial dilution. The diluted antibodies were added to the well containing 50 μL of cell suspension. The plate was placed on a microplate shaker at 400 rpm for 1 minute to fully mix the antibodies and cells, and then incubated at 4° C. for 30 minutes. After the incubation, the cells were washed twice with staining buffer (200 μL per well) and centrifuged at 350×g for 5 minutes to discard the supernatant. The PE goat anti-human IgG Fc antibody (ebioscience, 12-4998-82) was diluted 250 times with staining buffer, added into the washed wells (100 μL per well), mixed well, and stained at 4° C. for 30 minutes. After staining, the cells were washed twice with staining buffer, finally resuspended with 200 μL staining buffer and analyzed by flow cytometry (BD, Canto II). The stronger the signal, the stronger the ability of the antibodies binds to PVRIG. An antibody binding curve was drawn with concentration of antibodies as the abscissa and the corresponding Mean Fluorescence Intensity (MFI) as the ordinate. The AUC value of the curve was calculated by using a Four Parameter Logistic Fit (GraphPadPrism9). The stronger the AUC value, the stronger the ability of the antibodies binds to FlpinCHO-PVRIG and FlpinCHO-cyno PVRIG. […] The binding activity of the antibodies was normalized to the positive control COM701-hIgG1 and SRF813-hIgG1.

AUC % to COM701-hIgG1 | AUC % to SRF813-hIgG1 | AUC % to parental Ab | Binder
129% | 180% | 94.5% | B1
125% | 174% | 91.3% | B2
127% | 178% | 93.2% | B3

target: T2, cynomolgus monkey PVRIG on …; experiment: FACS, FlpinCHO-cyno PVRIG cells
Description: as §1, with “The” for “The Ham's F12 (Gibico, 21127-022) complete medium containing 10% FBS was then added to terminate the digestion and acquire cell suspension. After counting with a cell counter (Beckman Coulter, Vi-CELL), an appropriate amount of cell suspension was centrifuged at 350×g to remove the supernatant, washed twice with PBS, stained with Zombie violet (Biolegend, 423114) and incubated at room temperature for 20 minutes. After incubation, the cells were added with staining buffer (2% FBS+PBS) to stop staining, centrifuged at 350×g to remove the supernatant, washed twice and resuspended with staining buffer to a density of 2×10⁶ cells/mL. The cells were plated into a 96-well plate (50 μL of cell suspension per well) for further use. The”, “SRF813-hIgG1. The higher the percentage value, the stronger the binding ability of the antibodies.” for “SRF813-hIgG1.”
The methods refer to Example 19. The stronger the AUC value, the stronger the ability of the humanized antibodies binds to FlpinCHO-human/cyno PVRIG.

AUC % to COM701-hIgG1 | AUC % to SRF813-hIgG1 | AUC % to parental Ab | Binder
21% | 25.6% | 33.6% | B1
14.6% | 17.8% | 23.4% | B2
11.5% | 14.1% | 18.5% | B3

target: T3, TIGIT on human PBMCs stimulated by SEA; experiment: FACS; binding to SEA-stimulated human PBMC
Description: The fresh human PBMCs (AllCells, PB004-C) were adjusted to a density of 5×10⁵/mL, added with SEA (Toxin Technology, Inc., CAT: AT101) to 100 ng/ml, and cultured at 37° C. with 5% CO₂ for 3 days. The cells were collected 3 days later, washed once with PBS (Hyclone, CAT #SH30256), added with Fc Block (BD, 564220) and then incubated at 4° C. for 10 minutes. After washing twice with PBS, the PBMCs were resuspended to 2×10⁵/50 μL with 1% BSA-PBS. The humanized antibodies were diluted to 80 nM with 1% BSA-PBS (diluted by 3-fold serial dilution for 12 concentration points). The 50 μL cells were then mixed with 50 μL diluted antibodies, and then incubated at 4° C. for 60 minutes. […] After washing twice with PBS, the cell samples were resuspended with 1% BSA-PBS, 100 μL/well and then analyzed by flow cytometry (BD, Canto II).

Binder | EC50
B4 | 43.6 pM
B5 | 60.2 pM
B6 | 91.6 pM
B7 | 121 pM
